Four molecules from US20240158538A1 (HUMMINGBIRD BIOSCIENCE HOLDINGS PTE, published 2024) can be followed below.

Read-outs that look alike come from different tables or passages of the source.

Assay [1] concerns the target T1, human PD-L1 (ELISA coat) (human, UniProt Q9NZQ7 19-239). Nature of the assay: ELISA, human PD-L1 coated. Background: ELISA stands for enzyme-linked immunosorbent assay.
Assay [2] deals with T2, B7H3 (ELISA coat) (human, UniProt Q5ZPR3 29-461, limits assumed).
T2 construct: Species read from the list 'human VISTA, PD-1, PD-L1, ...'; also called CD276
T2 sequence (looked up): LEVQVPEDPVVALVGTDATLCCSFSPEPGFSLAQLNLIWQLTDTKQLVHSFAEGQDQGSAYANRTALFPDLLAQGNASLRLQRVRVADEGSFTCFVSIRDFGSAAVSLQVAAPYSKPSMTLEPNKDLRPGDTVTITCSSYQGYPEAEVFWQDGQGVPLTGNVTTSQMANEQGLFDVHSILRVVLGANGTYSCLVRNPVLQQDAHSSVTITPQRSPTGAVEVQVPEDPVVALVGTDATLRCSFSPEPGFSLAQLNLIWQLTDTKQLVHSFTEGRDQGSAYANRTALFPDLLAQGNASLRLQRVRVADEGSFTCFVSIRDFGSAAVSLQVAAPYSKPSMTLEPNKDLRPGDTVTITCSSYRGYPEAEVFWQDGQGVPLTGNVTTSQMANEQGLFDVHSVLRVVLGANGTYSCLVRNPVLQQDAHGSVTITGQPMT
Nature of the assay: ELISA, B7H3 coated.

Assay [3] deals with T3, PD-1 (ELISA coat) (human, UniProt Q15116 25-167, limits assumed).
T3 construct: Species read from the list 'human VISTA, PD-1, PD-L1, ...'
The experiment in a line: ELISA, plate coated with PD1.

In assay [4] the target is T4, B7H6 (ELISA coat) (human, UniProt Q68D85 25-262, limits assumed).
T4 construct: Species read from the list 'human VISTA, PD-1, PD-L1, ...'; also called NCR3LG1
T4 sequence (looked up): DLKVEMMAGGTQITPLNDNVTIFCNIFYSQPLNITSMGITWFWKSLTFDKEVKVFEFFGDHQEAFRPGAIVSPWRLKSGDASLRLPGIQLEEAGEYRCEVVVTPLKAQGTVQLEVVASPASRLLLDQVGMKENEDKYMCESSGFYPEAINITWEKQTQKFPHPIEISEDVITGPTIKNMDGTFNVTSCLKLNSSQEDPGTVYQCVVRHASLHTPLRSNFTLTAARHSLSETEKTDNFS
Nature of the assay: ELISA, plate coated with B7H6.

The target of assay [5] is T5, B7H7 (ELISA coat) (human, UniProt Q9UM44 23-344, limits assumed).
T5 construct: Species read from the list 'human VISTA, PD-1, PD-L1, ...'; also called HHLA2
T5 sequence (looked up): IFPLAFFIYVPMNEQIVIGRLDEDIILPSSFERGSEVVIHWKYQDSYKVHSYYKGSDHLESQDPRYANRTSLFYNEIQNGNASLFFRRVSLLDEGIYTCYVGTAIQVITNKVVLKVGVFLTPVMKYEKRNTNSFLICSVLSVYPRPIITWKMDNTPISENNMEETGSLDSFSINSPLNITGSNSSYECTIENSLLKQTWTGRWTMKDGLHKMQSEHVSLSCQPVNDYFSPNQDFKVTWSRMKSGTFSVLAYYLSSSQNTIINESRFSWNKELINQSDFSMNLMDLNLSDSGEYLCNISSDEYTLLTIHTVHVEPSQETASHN
Nature of the assay: ELISA, plate coated with B7H7.

Assay [6] has as its target T6, CTLA4 (ELISA coat) (human, UniProt P16410 36-162, limits assumed).
T6 construct: Species read from the list 'human VISTA, PD-1, PD-L1, ...'
The experiment in a line: ELISA, CTLA4 coated.

Another assay deals with human HER3 (human, UniProt P21860 20-643). Nature of the assay: ELISA, human HER3 coated.
Assay [7] deals with T7, B7H4 (ELISA coat) (human, UniProt Q7Z7D3 25-258, limits assumed).
T7 construct: Species read from the list 'human VISTA, PD-1, PD-L1, ...'; also called VTCN1
T7 sequence (looked up): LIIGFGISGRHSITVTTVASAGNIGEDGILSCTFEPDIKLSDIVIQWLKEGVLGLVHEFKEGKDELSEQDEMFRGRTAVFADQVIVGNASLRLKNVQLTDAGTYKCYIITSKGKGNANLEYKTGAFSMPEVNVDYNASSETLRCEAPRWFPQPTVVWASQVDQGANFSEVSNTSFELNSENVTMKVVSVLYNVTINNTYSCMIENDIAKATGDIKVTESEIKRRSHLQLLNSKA
Nature of the assay: ELISA, plate coated with B7H4.

The target in assay [8] is T2, B7H3 (ELISA coat). The experiment in a line: ELISA, plate coated with B7H3.
Assay [9] addresses T7, B7H4 (ELISA coat). The experiment in a line: ELISA, plate coated with B7H4. This is another data set of the same source.
The target in assay [10] is T4, B7H6 (ELISA coat). The experiment in a line: ELISA, plate coated with B7H6. This is another data set of the same source.
For assay [11], the target named is T5, B7H7 (ELISA coat). The experiment in a line: ELISA, plate coated with B7H7. The source holds these as a separate data set.
The target of assay [12] is T1, human PD-L1 (ELISA coat). The experiment in a line: ELISA, plate coated with B7H1 (PDL1).
Assay [13] concerns the target T3, PD-1 (ELISA coat). The experiment in a line: ELISA, plate coated with PD1. This is another data set of the same source.
In assay [14] the target is T6, CTLA4 (ELISA coat). Nature of the assay: ELISA, plate coated with CTLA4.
Assay [15] concerns the target T7, B7H4 (ELISA coat). Nature of the assay: ELISA, plate coated with B7H4. This is another data set of the same source.
For assay [16], the target named is T6, CTLA4 (ELISA coat). The experiment in a line: ELISA, plate coated with CTLA4. The source holds these as a separate data set.
For assay [17], the target named is T1, human PD-L1 (ELISA coat). The experiment in a line: ELISA, plate coated with B7H1 (PDL1). The source holds these as a separate data set.
For assay [18], the target named is T4, B7H6 (ELISA coat). Nature of the assay: ELISA, plate coated with B7H6. This is another data set of the same source.
Assay [19] deals with T5, B7H7 (ELISA coat). The experiment in a line: ELISA, plate coated with B7H7. The source holds these as a separate data set.
For assay [20], the target named is T3, PD-1 (ELISA coat). Nature of the assay: ELISA, plate coated with PD1. This is another data set of the same source.
In assay [21] the target is T2, B7H3 (ELISA coat). The experiment in a line: ELISA, plate coated with B7H3. The source holds these as a separate data set.
Assay [22] addresses T3, PD-1 (ELISA coat). Nature of the assay: ELISA, plate coated with PD1. This is another data set of the same source.
Assay [23] has as its target T4, B7H6 (ELISA coat). Nature of the assay: ELISA, plate coated with B7H6. The source holds these as a separate data set.
Assay [24] concerns the target T6, CTLA4 (ELISA coat). The experiment in a line: ELISA, plate coated with CTLA4. The source holds these as a separate data set.
Assay [25] concerns the target T1, human PD-L1 (ELISA coat). The experiment in a line: ELISA, plate coated with B7H1 (PDL1). The source holds these as a separate data set.
In assay [26] the target is T7, B7H4 (ELISA coat). Nature of the assay: ELISA, plate coated with B7H4. The source holds these as a separate data set.
For assay [27], the target named is T5, B7H7 (ELISA coat). Nature of the assay: ELISA, plate coated with B7H7. The source holds these as a separate data set.
The target in assay [28] is T2, B7H3 (ELISA coat). The experiment in a line: ELISA, plate coated with B7H3. This is another data set of the same source.

T1 sequence (Q9NZQ7 19-239 limits assumed): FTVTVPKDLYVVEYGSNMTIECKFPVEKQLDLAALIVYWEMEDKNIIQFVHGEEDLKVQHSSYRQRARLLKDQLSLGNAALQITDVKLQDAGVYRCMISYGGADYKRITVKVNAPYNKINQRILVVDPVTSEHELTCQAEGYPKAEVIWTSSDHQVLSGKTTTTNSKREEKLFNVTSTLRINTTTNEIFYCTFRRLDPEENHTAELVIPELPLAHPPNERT
T6 sequence (P16410 36-162 limits assumed): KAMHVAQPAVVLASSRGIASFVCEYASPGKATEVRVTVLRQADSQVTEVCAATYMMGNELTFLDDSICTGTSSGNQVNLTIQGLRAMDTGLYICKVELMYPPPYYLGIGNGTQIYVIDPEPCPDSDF
T3 sequence (Q15116 25-167 limits assumed): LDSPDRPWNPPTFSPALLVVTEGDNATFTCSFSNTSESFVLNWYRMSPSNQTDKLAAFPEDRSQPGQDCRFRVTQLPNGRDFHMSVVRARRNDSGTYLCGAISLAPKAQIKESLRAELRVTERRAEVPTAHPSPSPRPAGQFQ

B1: anti-VISTA clone 4M2-C12 IgG1 (antibody)
heavy: not shown
light: DIVITQTPAILSTSPGEKVTMTCRASSSVGYIHWYQQKPGSSPKPWIYATSNLASGVPARFSGSGSGTSNSLTITRVEAEDAATYYCQQWSSYPPITFGGGTKLEVKRTVAAPSVFIFPPSDEQLKSGTASVVCLLNNFYPREAKVQWKVDNALQSGNSQESVTEQDSKDSTYSLSSTLTLSKADYEKHKVYACEVTHQGLSSPVTKSFNRGEC
notes: also called V4; 4M2-C12-hIgG1
In the case of B1, the binding result with human PD-L1 (ELISA coat) [1] is given as “no binding (tested: log M about -6.7)”; in the assay with B7H3 (ELISA coat) [2], “no binding (tested: log M about -7.5)”; in the assay with PD-1 (ELISA coat) [3], “no binding (tested: log -7.5 (about 3e-8 M))”; in the assay with B7H6 (ELISA coat) [4] it was “no binding (tested: log -7.5 (about 3e-8 M))”; with B7H7 (ELISA coat) [5], “no binding (tested: log -7.5 (about 3e-8 M))”; with CTLA4 (ELISA coat) [6], “no binding (tested: log M about -7.5)”. For the same molecule, the binding result in the assay with human HER3 is reported as “no binding (tested: log M about -6.2)”; with B7H4 (ELISA coat) [7], “no binding (tested: log -7.5 (about 3e-8 M))”.

B2: anti-VISTA clone V4-C24 IgG1 (antibody, V domains shown)
VH: QVQLQESGPGLVKPSDTLSLTCTVSGYSITSDYTWNWIRQTPGKGLEWIGHITYSGSVSYNPSLRSRVTISRDTSKNQFSLKLSSVTAADTATYSCARALYYPWYFDVWGTGTTVTVSS
VL: EIVLTQSPATLSLSPGERATLSCRASSSVGYIHWYQQKPGQAPRPLIYTTSYRATGIPARFSGSGSGTDNTLTISSLEPEDSAVYYCQQWSSYPPITFGGGTKLEVKR
notes: Human IgG1/kappa
As to B2, the binding result with B7H3 (ELISA coat) [8], with B7H4 (ELISA coat) [9], with B7H6 (ELISA coat) [10], with B7H7 (ELISA coat) [11], with human PD-L1 (ELISA coat) [12] and with PD-1 (ELISA coat) [13] was “no binding (tested: log -7.5 (about 3e-8 M))” each time. Also, in the assay with CTLA4 (ELISA coat) [14], the binding result is given as “no binding (tested: log -7.5 (about 3e-8 M))”.

B3: anti-VISTA clone V4-C27 IgG1 (antibody, V domains shown)
VH: QVQLQESGPGLVKPSDTLSLTCTVSGYSITSDYTWNWIRQTPGKGLEWIGHITYSGSVSYNPSLRSRVTISRDTSKNQFSLKLSSVTAADTATYSCARALYYPWYFDVWGTGTTVTVSS
VL: EIVLTQSPATLSLSPGERATLSCRASSSVGYIHWYQQKPGQAPRPLIYATYNRATGIPARFSGSGSGTDNTLTISSLEPEDSAVYYCQQWSSYPPITFGGGTKLEVKR
notes: Human IgG1/kappa
For the molecule B3, the binding result in the assay with B7H4 (ELISA coat) [15], with CTLA4 (ELISA coat) [16], in the assay with human PD-L1 (ELISA coat) [17], with B7H6 (ELISA coat) [18], in the assay with B7H7 (ELISA coat) [19] and in the assay with PD-1 (ELISA coat) [20] was “no binding (tested: log -7.5 (about 3e-8 M))” each time. Also, the binding result with B7H3 (ELISA coat) [21] is listed as “no binding (tested: log -7.5 (about 3e-8 M))”.

B4: anti-VISTA clone V4-C26 IgG1 (antibody, V domains shown)
VH: QVQLQESGPGLVKPSDTLSLTCTVSGYSITSDYTWNWIRQTPGKGLEWIGHITYSGSVSYNPSLRSRVTISRDTSKNQFSLKLSSVTAADTATYSCARALYYPWYFDVWGTGTTVTVSS
VL: EIVLTQSPATLSLSPGERATLSCRASSSVGYIHWYQQKPGQAPRPIIYTTSNRATGIPARFSGSGSGTDNTLTISSLEPEDSAVYYCQQWSSYPPITFGGGTKLEVKR
notes: Human IgG1/kappa
As for B4, the binding result in the assay with PD-1 (ELISA coat) [22], with B7H6 (ELISA coat) [23], in the assay with CTLA4 (ELISA coat) [24], with human PD-L1 (ELISA coat) [25], with B7H4 (ELISA coat) [26] and with B7H7 (ELISA coat) [27] was “no binding (tested: log -7.5 (about 3e-8 M))” in each case. In addition, the binding result with B7H3 (ELISA coat) [28] was “no binding (tested: log -7.5 (about 3e-8 M))”.
